Data as given in patent US20080039419.

T1: synthetic peptide representing the β1 integrin cytoplasmic domain, P05556
T1 chain: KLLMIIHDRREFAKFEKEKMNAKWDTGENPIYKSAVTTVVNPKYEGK

T2: synthetic peptide representing the β3 integrin cytoplasmic domain, P05106
T2 chain: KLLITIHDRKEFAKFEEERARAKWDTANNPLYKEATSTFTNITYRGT

B1: integrin linked kinase (ILK), full length (protein)
chain: MDDIFTQCREGNAVAVRLWLDNTENDLNQGDDHGFSPLHWACREGRSAVVEMLIMRGARINVMNRGDDTPLHLAASHGHRDIVQKLLQYKADINAVNEHGNVPLHYACFWGQDQVAEDLVANGALVSICNKYGEMPVDKAKAPLRELLRERAEKMGQNLNRIPYKDTFWKGTTRTRPRNGTLNKHSGIDFKQLNFLTKLNENHSGELWKGRWQGNDIVVKVLKVRDWSTRKSRDFNEECPRLRIFSHPNVLPVLGACQSPPAPHPTLITHWMPYGSLYNVLHEGTNFVVDQSQAVKFALDMARGMAFLHTLEPLIPRHALNSRSVMIDEDMTARISMADVKFSFQCPGRMYAPAWVAPEALQKKPEDTNRRSADMWSFAVLLWELVTREVPFADLSNMEIGMKVALEGLRPTIPPGISPHVCKLMKICMNEDPAKRPKFDMIVPILEKMQDK
B2: GST-ILK^232 (GST fusion of ILK amino acid residues 132-451) (protein)
chain: YGEMPVDKAKAPLRELLRERAEKMGQNLNRIPYKDTFWKGTTRTRPRNGTLNKHSGIDFKQLNFLTKLNENHSGELWKGRWQGNDIVVKVLKVRDWSTRKSRDFNEECPRLRIFSHPNVLPVLGACQSPPAPHPTLITHWMPYGSLYNVLHEGTNFVVDQSQAVKFALDMARGMAFLHTLEPLIPRHALNSRSVMIDEDMTARISMADVKFSFQCPGRMYAPAWVAPEALQKKPEDTNRRSADMWSFAVLLWELVTREVPFADLSNMEIGMKVALEGLRPTIPPGISPHVCKLMKICMNEDPAKRPKFDMIVPILEKMQD

Tests used:
[1] = molecular target: T1, synthetic peptide representing the β1 …
[2] = molecular target: T2, synthetic peptide representing the β3 …

Protein | autophosphorylation of ILK in immune complex kinase assay [1] | phosphorylation of the synthetic peptide in ILK immune complex kinase assay (91-3 immunoprecipitates of PC3 lysates) [1] | phosphorylation of the synthetic peptide in ILK immune complex kinase assay (91-3 immunoprecipitates of PC3 lysates) [2] | phosphorylation of the synthetic peptide by recombinant kinase in vitro [1] | phosphorylation of the synthetic peptide by recombinant kinase in vitro [2]
B1 | The β1 peptide selectively inhibited autophosphorylation of ILK in these reactions | The β1 peptide was labeled on serine and threonine residues, with approximately equal stoichiometry | a similar peptide representing the β3 cytoplasmic domain was not detectably labeled by P59ILK |  | 
B2 |  |  |  | The results demonstrating phosphorylation of synthetic β peptides by endogenous ILK are identical to those seen with recombinant GST-ILK^232 | The results demonstrating phosphorylation of synthetic β peptides by endogenous ILK are identical to those seen with recombinant GST-ILK^232
